Article PMC6068138, “Identification of a 57S translation complex containing closed-loop factors and the 60S ribosome subunit” (Scientific Reports, 2018)

T1: Flag-PAB1 (poly(A)-binding protein) (Saccharomyces cerevisiae, UniProt P04147 1-577)
T1 construct: bait of the one-step Flag pull down; also called PAB1-Flag; source: S. cerevisiae, expressed from plasmid YC776 (Flag-PAB1 URA3), in cell extract
T1 sequence (looked up): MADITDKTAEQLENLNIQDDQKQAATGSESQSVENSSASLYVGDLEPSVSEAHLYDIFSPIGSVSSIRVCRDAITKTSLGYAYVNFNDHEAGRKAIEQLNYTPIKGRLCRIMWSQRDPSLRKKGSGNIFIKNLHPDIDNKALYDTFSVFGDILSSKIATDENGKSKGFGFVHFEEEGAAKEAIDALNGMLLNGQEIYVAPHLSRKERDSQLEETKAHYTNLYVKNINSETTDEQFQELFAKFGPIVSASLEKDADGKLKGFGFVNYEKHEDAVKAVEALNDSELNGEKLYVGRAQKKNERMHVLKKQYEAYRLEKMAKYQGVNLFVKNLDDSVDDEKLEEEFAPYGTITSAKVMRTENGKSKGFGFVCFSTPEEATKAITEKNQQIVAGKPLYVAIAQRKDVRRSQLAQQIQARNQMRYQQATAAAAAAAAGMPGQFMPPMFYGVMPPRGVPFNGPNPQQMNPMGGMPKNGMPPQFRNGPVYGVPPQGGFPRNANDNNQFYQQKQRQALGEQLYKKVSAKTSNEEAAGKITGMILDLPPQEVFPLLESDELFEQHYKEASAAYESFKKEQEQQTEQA

T2: eIF4E-Flag (mRNA cap binding protein) (Saccharomyces cerevisiae, UniProt P07260 1-213)
T2 construct: bait of the one-step Flag pull down; also called eIF4-Flag; source: S. cerevisiae, expressed from plasmid YC801 (eIF4E-Flag URA3), in cell extract
T2 sequence (looked up): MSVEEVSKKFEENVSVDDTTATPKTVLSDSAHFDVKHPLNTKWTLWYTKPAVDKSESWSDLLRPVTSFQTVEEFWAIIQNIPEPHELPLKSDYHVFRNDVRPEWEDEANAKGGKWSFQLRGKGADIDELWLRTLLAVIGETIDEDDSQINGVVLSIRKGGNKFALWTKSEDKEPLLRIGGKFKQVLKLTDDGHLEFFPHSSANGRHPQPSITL

B1: eIF4G1, GFP tagged (natural protein, Saccharomyces cerevisiae, UniProt P39935 1-952, looked up)
chain: MTDETAHPTQSASKQESAALKQTGDDQQESQQQRGYTNYNNGSNYTQKKPYNSNRPHQQRGGKFGPNRYNNRGNYNGGGSFRGGHMGANSSNVPWTGYYNNYPVYYQPQQMAAAGSAPANPIPVEEKSPVPTKIEITTKSGEHLDLKEQHKAKLQSQERSTVSPQPESKLKETSDSTSTSTPTPTPSTNDSKASSEENISEAEKTRRNFIEQVKLRKAALEKKRKEQLEGSSGNNNIPMKTTPENVEEKGSDKPEVTEKTKPAEEKSAEPEVKQETPAEEGEQGEKGQIKEESTPKVLTFAERLKLKKQQKEREEKTEGKENKEVPVQEETKSAIESAPVPPSEQVKEETEVAETEQSNIDESATTPAIPTKSDEAEAEVEAEAGDAGTKIGLEAEIETTTDETDDGTNTVSHILNVLKDATPIEDVFSFNYPEGIEGPDIKYKKEHVKYTYGPTFLLQFKDKLNVKADAEWVQSTASKIVIPPGMGRGNRSRDSGRFGNNSSRGHDFRNTSVRNMDDRANSRTSSKRRSKRMNDDRRSNRSYTSRRDRERGSYRNEEKREDDKPKEEVAPLVPSANRWVPKFKSKKTEKKLAPDGKTELLDKDEVERKMKSLLNKLTLEMFDAISSEILAIANISVWETNGETLKAVIEQIFLKACDEPHWSSMYAQLCGKVVKELNPDITDETNEGKTGPKLVLHYLVARCHAEFDKGWTDKLPTNEDGTPLEPEMMSEEYYAAASAKRRGLGLVRFIGFLYRLNLLTGKMMFECFRRLMKDLTDSPSEETLESVVELLNTVGEQFETDSFRTGQATLEGSQLLDSLFGILDNIIQTAKISSRIKFKLIDIKELRHDKNWNSDKKDNGPKTIQQIHEEEERQRQLKNNSRSNSRRTNNSSNRHSFRRDAPPASKDSFITTRTYSQRNSQRAPPPKEEPAAPTSTATNMFSALMGESDDEE
notes: eIF4G1, Saccharomyces cerevisiae; source: S. cerevisiae strain carrying the GFP fusion, in cell extract
B2: eIF4G2-GFP (natural protein, Saccharomyces cerevisiae, UniProt P39936 1-914, looked up)
chain: MTDQRGPPPPHPQQANGYKKFPPHDNQYSGANNSQPNNHYNENLYSAREPHNNKQYQSKNGKYGTNKYNNRNNSQGNAQYYNNRFNNGYRLNNNDYNPAMLPGMQWPANYYAPQMYYIPQQMVPVASPPYTHQPLNTNPEPPSTPKTTKIEITTKTGERLNLKKFHEEKKASKGEEKNDGVEQKSKSGTPFEKEATPVLPANEAVKDTLTETSNEKSTSEAENTKRLFLEQVRLRKAAMERKKNGLISETEKKQETSNHDNTDTTKPNSVIESEPIKEAPKPTGEANEVVIDGKSGASVKTPQHVTGSVTKSVTFNEPENESSSQDVDELVKDDDTTEISDTTGGKTVNKSDDETINSVITTEENTVKETEPSTSDIEMPTVSQLLETLGKAQPISDIYEFAYPENVERPDIKYKKPSVKYTYGPTFLLQFKDKLKFRPDPAWVEAVSSKIVIPPHIARNKPKDSGRFGGDFRSPSMRGMDHTSSSRVSSKRRSKRMGDDRRSNRGYTSRKDREKAAEKAEEQAPKEEIAPLVPSANRWIPKSRVKKTEKKLAPDGKTELFDKEEVERKMKSLLNKLTLEMFDSISSEILDIANQSKWEDDGETLKIVIEQIFHKACDEPHWSSMYAQLCGKVVKDLDPNIKDKENEGKNGPKLVLHYLVARCHEEFEKGWADKLPAGEDGNPLEPEMMSDEYYIAAAAKRRGLGLVRFIGYLYCLNLLTGKMMFECFRRLMKDLNNDPSEETLESVIELLNTVGEQFEHDKFVTPQATLEGSVLLDNLFMLLQHIIDGGTISNRIKFKLIDVKELREIKHWNSAKKDAGPKTIQQIHQEEEQLRQKKNSQRSNSRFNNHNQSNSNRYSSNRRNMQNTQRDSFASTKTGSFRNNQRNARKVEEVSQAPRANMFDALMNNDGDSD
notes: eIF4G2, Saccharomyces cerevisiae; also called TIF4632-GFP; source: S. cerevisiae strain RP2384 (TIF4632-GFP::G418), in cell extract
B3: PAB1, GFP tagged (natural protein, Saccharomyces cerevisiae, UniProt P04147 1-577, looked up)
chain: T1 sequence (looked up)
notes: source: S. cerevisiae strain carrying the GFP fusion, in cell extract
B4: RPL6B-GFP (natural protein, Saccharomyces cerevisiae, UniProt P05739 1-176, looked up)
chain: MTAQQAPKWYPSEDVAAPKKTRKAVRPQKLRASLVPGTVLILLAGRFRGKRVVYLKHLEDNTLLVTGPFKVNGVPLRRVNARYVIATSTKVSVEGVNVEKFNVEYFAKEKLTKKEKKEANLFPEQQTKEIKTERVEDQKVVDKALLAEIKKTPLLKQYLSASFSLKNGDKPHLLKF
notes: large ribosomal subunit protein RPL6B, Saccharomyces cerevisiae; part of the 60S ribosomal subunit in the extract; source: S. cerevisiae strain carrying the GFP fusion, in cell extract
B5: eIF4E, GFP tagged (natural protein, Saccharomyces cerevisiae, UniProt P07260 1-213, looked up)
chain: T2 sequence (looked up)
notes: as for B3
B6: translation termination factor eRF1 (natural protein, Saccharomyces cerevisiae, UniProt P12385 1-437, looked up)
chain: MDNEVEKNIEIWKVKKLVQSLEKARGNGTSMISLVIPPKGQIPLYQKMLTDEYGTASNIKSRVNRLSVLSAITSTQQKLKLYNTLPKNGLVLYCGDIITEDGKEKKVTFDIEPYKPINTSLYLCDNKFHTEVLSELLQADDKFGFIVMDGQGTLFGSVSGNTRTVLHKFTVDLPKKHGRGGQSALRFARLREEKRHNYVRKVAEVAVQNFITNDKVNVKGLILAGSADFKTDLAKSELFDPRLACKVISIVDVSYGGENGFNQAIELSAEALANVKYVQEKKLLEAYFDEISQDTGKFCYGIDDTLKALDLGAVEKLIVFENLETIRYTFKDAEDNEVIKFAEPEAKDKSFAIDKATGQEMDVVSEEPLIEWLAANYKNFGATLEFITDKSSEGAQFVTGFGGIGAMLRYKVNFEQLVDESEDEYYDEDEGSDYDFI
notes: translation termination factor eRF1, Saccharomyces cerevisiae; source: S. cerevisiae, in cell extract

Experiments:
Conditions in all cases: partners not purified
[1] = target: T1, Flag-PAB1 (poly(A)-binding protein); experiment: co-IP + AUC; stoichiometric analysis: Flag-PAB1 purified material split and run at the same time by AU-FDS (GFP protein) and AU-A230 (total material); standards STM1-GFP and RPS4B-GFP; values relative to 100 mRNA bound by ribosomes; cells on glucose, 30 °C to 46 °C 1 min, or glucose depleted 10 min and added back 1 min
[2] = target: T2, eIF4E-Flag (mRNA cap binding protein); experiment: co-IP + AUC; stoichiometric analysis: eIF4E-Flag purified material split and run at the same time by AU-FDS (GFP protein) and AU-A230 (total material); standards STM1-GFP and RPS4B-GFP; values relative to 100 mRNA bound by ribosomes; cells on glucose
[3] = target: T1, Flag-PAB1 (poly(A)-binding protein); experiment: co-IP + AUC; stoichiometric analysis: Flag-PAB1 purified material split and run at the same time by AU-FDS (GFP protein) and AU-A230 (total material); standards STM1-GFP and RPS4B-GFP; values relative to 100 mRNA bound by ribosomes; cells on glucose, 30 °C to 46 °C 1 min, or glucose depleted 10 min and added back 1 min; remark: listed apart in the source
[4] = target: T2, eIF4E-Flag (mRNA cap binding protein); experiment: co-IP + AUC; one-step Flag pull down of eIF4E-Flag from yeast cell extracts (cycloheximide added before lysis); Flag eluate analysed by AU-FDS for the GFP tagged protein, 20 °C, 15,000 rpm; cells on glucose or glucose depleted 10 min
[5] = target: T1, Flag-PAB1 (poly(A)-binding protein); experiment: co-IP + AUC; one-step Flag pull down of Flag-PAB1 from yeast cell extracts (cycloheximide added before lysis); Flag eluate analysed by AU-FDS for the GFP tagged protein, 20 °C, 15,000 rpm; cells on glucose, glucose depleted 10 min, glucose added back 1 min, or 30 °C to 46 °C 1 min

Binder	abundance in the Flag-PAB1 39S complex (Glc+) [1]	abundance in the Flag-PAB1 57S complex (Glc+) [1]	abundance in the eIF4E-Flag 39S complex (Glc+) [2]	abundance in the eIF4E-Flag 57S complex (Glc+) [2]	abundance in the Flag-PAB1 39S complex (30 °C to 46 °C 1 min) [3]	abundance in the Flag-PAB1 39S complex (Glu + − 10 min + 1 min) [3]	abundance in the Flag-PAB1 57S complex (30 °C to 46 °C 1 min) [3]	abundance in the Flag-PAB1 57S complex (Glu + − 10 min +1 min) [3]	fold change of abundance in the 57S complex, glucose depleted against glucose [4]	fold change of abundance in the 77S complex, glucose depleted 10 min against glucose [5]	fold change of association with the 77S complex, 46 °C 1 min against 30 °C [5]
B1	13 ± 2.3 relative to 100 mRNA	6.4 ± 0.91 relative to 100 mRNA	88 ± 12 relative to 100 mRNA	71 ± 8.6 relative to 100 mRNA	7.9 ± 1.7 relative to 100 mRNA	8.8 ± 1.6 relative to 100 mRNA	3 ± 2.2 relative to 100 mRNA	5.3 ± 1.1 relative to 100 mRNA	–	–	–
B2	8.3 ± 3.4 relative to 100 mRNA	3.5 ± 1.4 relative to 100 mRNA	29 ± 5.4 relative to 100 mRNA	32 ± 11 relative to 100 mRNA	12 ± 8.1 relative to 100 mRNA	5.3 ± 2.7 relative to 100 mRNA	3.8 ± 2.3 relative to 100 mRNA	3.2 ± 0.45 relative to 100 mRNA	–	–	–
B3	–	–	42 ± 9.1 relative to 100 mRNA	26 ± 3.7 relative to 100 mRNA	–	–	–	–	–	–	–
B4	–	–	–	–	–	–	–	–	1.8 fold	–	–
B5	28 ± 9.5 relative to 100 mRNA	14 ± 2.9 relative to 100 mRNA	–	–	20 ± 2.5 relative to 100 mRNA	14 ± 3.8 relative to 100 mRNA	21 ± 9.4 relative to 100 mRNA	5.1 ± 2.1 relative to 100 mRNA	–	–	–
B6	–	–	–	–	–	–	–	–	–	4 fold	2 fold
